We go through one substance from patent publication US20040219637A1.

For assay [1], the target named is Crotalus durissus terrificus venom. Nature of the assay: ELISA, venom coat, dilution 1:5.
For assay [2] the target is unchanged. As to the kind of experiment: ELISA, venom coat, dilution 1:625.
Assay [3] shares this target. Nature of the assay: ELISA, venom coat, dilution 1:3125.
The target is the same in assay [4]. Nature of the assay: ELISA, venom coat, undiluted. (An ELISA detects its analyte on a solid surface through an enzyme-linked reagent.)
For assay [5] the target is unchanged. Nature of the assay: ELISA, venom coat, dilution 1:25.
For assay [6] the target is unchanged. As to the kind of experiment: ELISA, venom coat, dilution 1:3125. The source holds these as a separate data set.
The target is the same in assay [7]. As to the kind of experiment: ELISA, venom coat, dilution 1:125.
Assay [8] shares this target. As to the kind of experiment: ELISA, venom coat, dilution 1:25. This is another data set of the same source.
Assay [9] shares this target. Nature of the assay: ELISA, venom coat, dilution 1:312,500.
Assay [10] shares this target. As to the kind of experiment: ELISA, venom coat, dilution 1:125. This is another data set of the same source.
For assay [11] the target is unchanged. Nature of the assay: ELISA, venom coat, dilution 1:625. The source holds these as a separate data set.
Assay [12] shares this target. As to the kind of experiment: ELISA, venom coat, dilution 1:62,500.

Take “Preimmune IgY (egg yolk antibody of unimmunized hens)”: the ELISA absorbance in assay [1] is under 0 absorbance; in assay [2], 0 absorbance; in assay [3], 0.002 absorbance; in assay [4], 0.003 absorbance; in assay [5] it was 0.016 absorbance; in [6], under 0 absorbance. Further, the ELISA absorbance was under 0 absorbance in assay [7], 0 absorbance in assay [8], 0.003 absorbance in [10] and under 0 absorbance in assay [11]. In addition, the ELISA absorbance (412 nm) in [9] is 0.01 absorbance; in [12], 0.001 absorbance.
